Data as given in patent US20120301472A1 (DUKE UNIVERSITY, published 2012).

Experiments:
[1] = biological target: T1, native human CD22 (hCD22) (human, UniProt P20273 20-847); test: hybridoma screen on CD22-transfected mouse L cells
T1 construct: On Raji and Ramos Burkitt lymphoma cells (Scatchard analysis, flow cytometry) and on mouse L cells transfected with full-length CD22 cDNA (hybridoma screen)
Excerpt: Monoclonal antibodies (mAbs) HB22-7 (IgG2b), HB22-23 (IgG2a), HB22-33 (IgM), HB22-5 (IgG2a), HB22-13 (IgG2a), HB22-22 (IgA), and HB22-196 were produced according to the method of Engel et al., J Immunol 15:4710 (1993) and U.S. Pat. No. 5,484,892. See, also Tuscano et al, Blood 94:1382-1392 (1999). However, other methods may be used. Briefly, the HB22 mAbs were produced via hybridoma techniques using a mouse pre-B cell line 300.19, stably transfected with full length CD22 cDNA, as the immunogen. More specifically, thirty-three mAbs reactive with CD22 were generated by the fusion of NS-1 myeloma cell with spleen cells from Balb/c mice immunized three times with a mouse pre-B cell line, 300.19, stably transfected with a full-length CD22 cDNA. Hybridomas producing mAb reactive with mouse L cells transfected with CD22 cDNA, but not with untransfected cells, were cloned twice and used to generate supernatant or ascites fluid. mAb isotypes were determined using the Mouse Monoclonal Antibody Isotyping Kit (Amersham, Arlington Heights, Ill.). IgGmAb were purified using the Affi-Gel Protein A MAPS II Kit (Bio-Rad, Richmond, Calif.).

[2] = biological target: T1, native human CD22 (hCD22); test: Scatchard analysis, Raji against Ramos cells
Procedure: Cell lines and Scatchard Analysis. Raji and Ramos Burkitt lymphoma, cell lines were purchased from American Type Culture Collection (ATCC, Manassas, Va.). Both cell lines stained for CD22 expression by flow cytometric methods utilizing the HB22-7 mAb, as described previously (Tuscano et al., supra). The cell lines were maintained in RPMI 1640 supplemented with 10% fetal calf serum at 0.5 times. 10⁶ cells/ml. A Scatchard analysis using Raji and Ramos cells was performed as described previously (Scatchard, G., Ann. of NY Acad Sci. 51:660 (1947)). Briefly, HB22-7 was labeled with ¹²⁵ I by the chloramine T method (specific activity of […]). A competitive binding assay was performed utilizing serially diluted, unlabeled HB22-7.
Scatchard analysis was utilized to assess the binding affinity of HB22-7 and the number of CD22 receptors on Ramos and Raji cells. The cells were assayed for maximum, binding percentage (Bmax), disassociation constant (Ka) and number of antibodies bound per cell. The results shown in Table 1 are the average of two experiments.

T1 sequence (P20273 other isoform, or with tags, fused parts or gaps limits assumed): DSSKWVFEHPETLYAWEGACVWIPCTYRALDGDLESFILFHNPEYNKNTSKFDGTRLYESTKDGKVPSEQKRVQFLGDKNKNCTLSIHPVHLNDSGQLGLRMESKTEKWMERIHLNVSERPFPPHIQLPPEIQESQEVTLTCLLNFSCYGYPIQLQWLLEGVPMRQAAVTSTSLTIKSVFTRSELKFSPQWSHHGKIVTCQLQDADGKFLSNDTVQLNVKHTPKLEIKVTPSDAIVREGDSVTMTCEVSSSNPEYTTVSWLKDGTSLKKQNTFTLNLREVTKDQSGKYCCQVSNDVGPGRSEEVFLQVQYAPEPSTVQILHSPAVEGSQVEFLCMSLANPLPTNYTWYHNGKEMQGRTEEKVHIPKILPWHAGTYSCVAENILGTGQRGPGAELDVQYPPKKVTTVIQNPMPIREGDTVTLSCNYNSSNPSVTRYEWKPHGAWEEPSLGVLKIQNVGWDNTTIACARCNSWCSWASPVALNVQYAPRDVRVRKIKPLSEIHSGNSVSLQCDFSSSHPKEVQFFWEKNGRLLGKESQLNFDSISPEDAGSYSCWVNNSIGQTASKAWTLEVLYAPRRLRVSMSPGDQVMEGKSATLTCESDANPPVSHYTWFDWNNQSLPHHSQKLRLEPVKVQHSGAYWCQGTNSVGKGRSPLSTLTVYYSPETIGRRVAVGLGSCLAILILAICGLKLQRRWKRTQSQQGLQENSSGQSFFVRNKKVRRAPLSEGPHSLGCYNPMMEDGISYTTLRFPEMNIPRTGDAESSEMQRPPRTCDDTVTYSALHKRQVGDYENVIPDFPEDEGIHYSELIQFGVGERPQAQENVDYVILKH

| Binder | binding result [1] | fold increase in Ka, Raji cells versus Ramos cells [2] | fold increase in antibodies bound per cell and Bmax, Raji cells versus Ramos cells [2] |
| --- | --- | --- | --- |
| anti-CD22 monoclonal antibody HB22-33 (antibody, V domains shown) VH: EVQLQESGPGLVKPSQSLSLTCSVTGYSITSGYYWNWIRQFPGNKLEWMGYIRYDGSNNYNPSLKNRISITRDTSKNQFFLKLNSVTTEDTATYYCARGGITVAMDYWGQGTSVTVSS VL: not shown | binds |  |  |
| anti-CD22 monoclonal antibody HB22-5 (antibody, V domains shown) VH: EVQLQESGPELVKPGASMKISCKASGYSFTDYTMNWVKQSHGKNLEWIGLLHPFNGGTSYNQKFKGKATLSVDKSSSTAFMELLSLTSEDSAVYFCARGTGRNYAMDYWGQGTSVTVSS VL: SIVMTQTPKFLLVSTGDRVTITCKASQTVTNDLAWYQQKPGQSPKLLIYYASNRYTGVPDRFTGSGYGTDFTFTINTVQAEDLAVYFCQQDYSSPLTFGAGTKLELKR | binds |  |  |
| anti-CD22 monoclonal antibody HB22-13 (antibody, V domains shown) VH: EVQLQESGGGLVQPGGSLRLSCATSGFTFIDYYMNWVRQPPGKALEWLGFIKNKFNGYTTEYNTSVKGRFTISRDNSQSILYLQMNTLRAEDSATYYCARGLGRSYAMDYWGQGTSVTVSS VL: SIVMTQTPKFLLVSAGDRVSITCKASQSVTNDVTWYQQKPGQSPKLLIYFASNRYTGVPDRFTGSGYGTDFTFTISTVQAEDLAVYFCQQDYSSPLTFGAGTKLELKR | binds |  |  |
| anti-CD22 monoclonal antibody HB22-7 (antibody, V domains shown, Labelled with 125I for the Scatchard assay; also called HB11347; anti-CD22 mAb) VH: EVQLQESGPGLVAPSQSLSITCTVSGFSLSDYGVNWVRQIPGKGLEWLGIIWGDGRTDYNSALKSRLNISKDNSKSQVFLKMNSLKADDTARYYCARAPGNRAMEYWGQGTSVTVSS VL: SIVMTQTPKFLLVSAGDRITLTCKASQSVTNDVAWYQQKPGQSPKLLIYYASNRYTGVPDRFTGSGYGTDFTFTISTVQAEDLAVYFCQQDYRSPWTFGGGTKLEIKR |  | 2 fold | ~2.5 fold |
